Literature values, collected in paper PMC9636575.

Biological target: MqsA 1-76 (Escherichia coli) (UniProt Q46864)
Sequence (Q46864 1-76): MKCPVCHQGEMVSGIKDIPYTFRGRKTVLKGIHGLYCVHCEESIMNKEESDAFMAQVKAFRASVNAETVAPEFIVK

Chain of MqsR (Q46865 whole entry): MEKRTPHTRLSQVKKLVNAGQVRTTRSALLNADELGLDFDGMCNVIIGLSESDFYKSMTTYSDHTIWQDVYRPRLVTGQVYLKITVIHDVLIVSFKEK

## MqsR (from UniProt Q46865)
  Kd: < 1 nM
